The target in experiment [1] is T1, peptide of amino acid residues 1-10 of IAPP (human, disulfide 2-7).
T1 construct: also called IAPP 1-10
T1 peptide: KCNTATCATQ
Briefly: epitope mapping.

For experiment [2], the target named is T2, human islet-amyloid polypeptide (IAPP) (human).
T2 construct: also called hIAPP; amylin
T2 peptide: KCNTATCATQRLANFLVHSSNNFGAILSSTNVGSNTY
Briefly: ELISA screen of hybridomas on IAPP. A general note: An ELISA detects its analyte on a solid surface through an enzyme-linked reagent.

The next experiment concerns the target T3, rat IAPP (rat, UniProt P12969 38-74).
T3 construct: also called rat islet-amyloid polypeptide
T3 peptide (looked up): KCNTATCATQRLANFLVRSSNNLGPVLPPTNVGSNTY
Briefly: Biacore SPR, antibody captured on anti-human CM5 chip, rat IAPP as analyte. The method, then:
The affinity of various combinations of 8A9 humanized heavy chains and humanized light chain proteins for hIAPP was analyzed on a Biacore instrument. Biacore analysis was performed by preparing an anti-human CM5 chip following the protocol provided in the kit. The 8A9 antibody was captured such that the maximum binding of rat IAPP would not exceed 20-30 RU. […] Data was blank subtracted to both an irrelevant sensor not containing 8A9 and 0 IAPP concentration to account for the dissociation of 8A9 from the anti-human capture. Data was then analyzed using a global 1:1 fit.

Positions of bridges follow the written chain, without caps; N, C: chain ends. No end group written: not given here.

B1: murine 8A9 antibody (antibody, V domains shown)
VH: QVQLKESGPGLVAPSQSLSITCTVSGFSLTNYAVHWVRQPPGKGLEWLGVIWSGGNTNYNSALMSRLRISKDNSQSQVFLKMNSLQTDDTGMYYCARDRGYYGGIYGFANWGQGTLVTVSS
VL: DIQMTQSPSSLSASLGKRVSLTCRASQEISGYLSWLQQKPDGTIKRLIYAASTSDSGVPKRFSGSRSGSDYSLTISSVESEDFADYYCLQYADYPYTFGGGTKLEIK
notes: Mouse hybridoma antibody; also called m8A9; mouse 8A9 antibody
For B1, the binding result in experiment [1] and in experiment [2] was “binds” throughout.

B2: humanized 8A9 antibody version H7L3 (antibody, V domains shown)
VH: QVQLQQSGPGLVKPSQSLSLTCTVSGFSLTNYAVHWVRQPPGKGLEWLGVIWSGGNTNYNSALMSRLTISKDNSQNQVFLKLNSLTTADTGVYYCARDRGYYGGIYGFANWGQGTLVTVSS
VL: DIQMTQSPSSLSASVGDRVTITCRASQEISGYLSWLQQKPGKAIKRLIYAASTSDSGVPSRFSGSRSGSDYTLTISSLQPEDFADYYCLQYADYPYTFGGGTKVEIK
notes: also called H8A9-H7L3
With B2, the “fold difference of affinity against murine 8A9” value in the experiment with rat IAPP is under 2 fold.

These data come from patent US20150191541A1 (NEOTOPE BIOSCIENCES, published 2015).
